Data taken from patent US20220177587A1, “METHODS AND USES OF VARIANT CD80 FUSION PROTEINS AND RELATED CONSTRUCTS” (Alpine Immune Sciences, Inc., priority 2018, published 2022).

Experiments:
[1] = biological target: T1, CD28 (Homo sapiens, UniProt P10747); test: Jurkat/IL2 reporter assay: blockade of CD28 costimulation (plate-bound anti-CD3/CD86-Fc); format: cell-based; set-up: host or cells: Jurkat cells expressing an IL-2-luciferase reporter; conditions: Table E5; protein diluted to 40 nM before mixing with cells; 5 hours
Procedure, shortened: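 Readout is Bio-Glo luminescence after a 5 h, 37 °C stimulation of IL-2-luciferase Jurkat reporter cells on wells precoated (overnight, 4 °C) with anti-CD3 antibody and CD86-Fc. Cells were first mixed with CD80-Fc test proteins for 15 min at room temperature.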

[2] = biological target: T1, CD28; test: Jurkat/IL2 + CHO/OKT3 +/- PD-L1 reporter assay: PD-L1-dependent CD28 costimulation; format: cell-based; set-up: host or cells: Jurkat cells expressing an IL-2-luciferase reporter; conditions: luciferase signal
Procedure, shortened: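 Readout is relative luminescence from lysed cocultures: test protein given 15 min at room temperature to Jurkat cells before adding CHO artificial APCs displaying OKT3 alone or OKT3 plus PD-L1, then 5 h at 37 °C, 5% CO2.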

Molecule | Average Relative Luminescence Units [1] | other results
E35D/M47I: variant CD80 IgV-Fc, IgV SEQ ID NO:177 (protein) VIHVTKEVKEVATLSCGHNVSVEELAQTRIYWQKDKKMVLTMMSGDINIWPEYKNRTIFDITNNLSIVILALRPSDEGTYECVVLKYEKDAFKREHLAEVTLSVKAD | 1444 Relative Luminescence Units | PD-L1-Dependent CD28 Costimulation, +PD-L1, 0.6 nM ([2]; CHO/OKT3/PD-L1 aAPC, 0.6 nM): 1047; PD-L1-Dependent CD28 Costimulation, +PD-L1, 50 nM ([2]; CHO/OKT3/PD-L1 aAPC, 50 nM): 3778; PD-L1-Dependent CD28 Costimulation, No PD-L1, 50 nM ([2]; CHO/OKT3 aAPC, no PD-L1, 50 nM): 894; PD-L1-Dependent CD28 Costimulation, No PD-L1, […] ([2]; CHO/OKT3 aAPC, no PD-L1, […]): 637
V22L/E35D/M43L/A71G/D76H: variant CD80 IgV-Fc, IgV SEQ ID NO:218 (protein) VIHVTKEVKEVATLSCGHNVSLEELAQTRIYWQKDKKMVLTMLSGDMNIWPEYKNRTIFDITNNLSIVILGLRPSHEGTYECVVLKYEKDAFKREHLAEVTLSVKAD | 2004 Relative Luminescence Units | –
Y31H/E35D/T41S/V68L/K93R/R94W: variant CD80 IgV-Fc, IgV SEQ ID NO:223 (protein) VIHVTKEVKEVATLSCGHNVSVEELAQTRIHWQKDKKMVLSMMSGDMNIWPEYKNRTIFDITNNLSILILALRPSDEGTYECVVLKYEKDAFRWEHLAEVTLSVKAD | 3678 Relative Luminescence Units | –
D46E/A71D: variant CD80 IgV-Fc, IgV SEQ ID NO:222 (protein) VIHVTKEVKEVATLSCGHNVSVEELAQTRIYWQKEKKMVLTMMSGEMNIWPEYKNRTIFDITNNLSIVILDLRPSDEGTYECVVLKYEKDAFKREHLAEVTLSVKAD | 490 Relative Luminescence Units | –
L70Q/A71D: variant CD80 IgV-Fc, IgV SEQ ID NO:220 (protein) VIHVTKEVKEVATLSCGHNVSVEELAQTRIYWQKEKKMVLTMMSGDMNIWPEYKNRTIFDITNNLSIVIQDLRPSDEGTYECVVLKYEKDAFKREHLAEVTLSVKAD | 1036 Relative Luminescence Units | –
I30T/L70R: variant CD80 IgV-Fc, IgV SEQ ID NO:154 (protein) VIHVTKEVKEVATLSCGHNVSVEELAQTRTYWQKEKKMVLTMMSGDMNIWPEYKNRTIFDITNNLSIVIRALRPSDEGTYECVVLKYEKDAFKREHLAEVTLSVKAD | 3236 Relative Luminescence Units | –
